These results are taken from PMC8701324, “Structural Insight into the Mechanism of PALB2 Interaction with MRG15” (Genes, 2021).

The target of this assay is MRG15 MRG domain, amino acids 155-323, Q9UBU8-2. The experiment in a line: competition assay (fluorescence anisotropy, displacement of FAM-PALB2 from MRG). The following applies: chain shown with the change; 10 nM WT FAM-PALB2 peptide; parent: 9.8 ±2.6. A general note: Polarisation of emitted light reports the rotation of a fluorescent probe.
MRG15 MRG domain, amino acids 155-323, Q9UBU8-2, sequence (Q9UBU8 194-362): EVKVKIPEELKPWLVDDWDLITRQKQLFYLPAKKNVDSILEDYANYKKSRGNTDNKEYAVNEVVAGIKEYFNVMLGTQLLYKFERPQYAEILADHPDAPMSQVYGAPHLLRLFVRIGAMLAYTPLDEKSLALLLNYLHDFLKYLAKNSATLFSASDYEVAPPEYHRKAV
For the molecule MLSLKQLLSFLSITDFQLPDEDFGTLKLEKVKSC [WT PALB2^597-630 peptide P621T], the inhibition constant Ki (as a rule, the equilibrium dissociation constant of an inhibitor or competing ligand from its target) came to 1.7 nM.
Turning to MLSLKQLLSFLSITDFQLPHEDFGPLKLEKVKSC [WT PALB2^597-630 peptide D616H], the Ki turned out to be 23.2 nM.
As for MLSLKQLLSFLSITDFQLSDEDFGPLKLEKVKSC [WT PALB2^597-630 peptide P615S], the figure is 52.8 nM.
